Values of other authors as cited in publication PMC7277390.
pKd: −log10 of the molar value.

Target: serum albumin (MSA) (Mus musculus) (UniProt P07724)
UniProt P07724, sequence (P07724 25-608): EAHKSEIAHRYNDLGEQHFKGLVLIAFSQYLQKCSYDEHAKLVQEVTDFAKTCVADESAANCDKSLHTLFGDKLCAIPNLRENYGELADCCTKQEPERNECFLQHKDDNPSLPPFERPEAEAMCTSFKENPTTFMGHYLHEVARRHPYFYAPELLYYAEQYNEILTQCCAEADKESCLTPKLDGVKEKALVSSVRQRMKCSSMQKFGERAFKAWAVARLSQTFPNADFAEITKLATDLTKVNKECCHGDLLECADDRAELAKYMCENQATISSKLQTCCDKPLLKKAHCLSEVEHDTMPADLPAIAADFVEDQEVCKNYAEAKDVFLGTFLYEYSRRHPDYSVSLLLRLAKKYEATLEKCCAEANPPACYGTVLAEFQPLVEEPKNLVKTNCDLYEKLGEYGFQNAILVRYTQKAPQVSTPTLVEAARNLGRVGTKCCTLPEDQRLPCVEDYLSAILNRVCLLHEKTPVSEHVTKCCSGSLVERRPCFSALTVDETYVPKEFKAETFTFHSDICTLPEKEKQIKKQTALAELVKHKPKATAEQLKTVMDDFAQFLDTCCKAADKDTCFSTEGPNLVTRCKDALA

FcRn (from UniProt Q61559)
pKd: 6.26
